In patent US20220175921A1:

Experiments:
[1] = biological target: human GITR, membrane bound (on activated human T cells or on 3A9-hGITR cells) (UniProt Q9Y5U5); experiment: cell-based or functional assay
[2] = biological target: human GITR, membrane bound (on activated human T cells or on 3A9-hGITR cells) (UniProt Q9Y5U5); experiment: FACS binding; activated human CD8 T cells; conditions: ligand

human GITR, membrane bound (on activated human T cells or on 3A9-hGITR cells), sequence (Q9Y5U5 26-241): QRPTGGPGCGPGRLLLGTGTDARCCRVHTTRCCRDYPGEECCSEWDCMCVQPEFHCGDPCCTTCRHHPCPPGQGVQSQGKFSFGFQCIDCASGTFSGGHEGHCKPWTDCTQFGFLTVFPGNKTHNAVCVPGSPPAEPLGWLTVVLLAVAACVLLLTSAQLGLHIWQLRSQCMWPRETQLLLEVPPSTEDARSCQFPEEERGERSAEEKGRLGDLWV
recombinant human GITR ligand trimer (R&D Systems 6987-GL), sequence (Q9UNG2 49-177): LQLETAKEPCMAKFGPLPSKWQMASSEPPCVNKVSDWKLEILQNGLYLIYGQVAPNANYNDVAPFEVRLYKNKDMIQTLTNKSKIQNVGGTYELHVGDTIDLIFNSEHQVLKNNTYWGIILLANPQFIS

NFKB signaling (phospho-p65) Emax, CD4+ T cells [1] [%] | NFKB signaling (phospho-p65) Emax, CD8+ T cells [1] [%] | IC50 [2] [µg/mL] | Substance
4 | 6 |  | hIgG1 Isotype Control (antibody)
 |  | 0.0163 | recombinant human GITR ligand trimer (R&D Systems 6987-GL) (from UniProt Q9UNG2 49-177)
